# Test results: patent US20100260765A1 (AstraZeneca / MedImmune, published 2010)
# Legend:
# [1] = biological target: T1, mouse KDR (Flk-1)/Fc (Cat. #443-KD/CF, R&D Systems, Inc.) (mouse, UniProt P35918 20-762); test: ELISA, Flk-1 coat 5 ug/mL, antibody 1 ug/mL
# T1 construct: Bought reagent; also called mouse VEGFR2; KDR mouse ortholog; not shown: Fc of the bought fusion protein
# In short: (§1)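 Coat wells with the recombinant receptor protein, add purified antibody, then detect the bound antibody by ELISA. Isotype IgG1 and IgG4 are run alongside as controls.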
# human KDR [2] = biological target: T2, human KDR (human, UniProt P35968 20-1356); test: FACS competition on 293T/human KDR transfectants; antibody 5 ug/mL first, then competitor VEGF165 50 ng/mL; bound VEGF165 detected
# T2 construct: whole, on cells; also called VEGFR2; endogenously-expressed KDR in HUVEC cells
# T2 sequence (P35968 20-1356): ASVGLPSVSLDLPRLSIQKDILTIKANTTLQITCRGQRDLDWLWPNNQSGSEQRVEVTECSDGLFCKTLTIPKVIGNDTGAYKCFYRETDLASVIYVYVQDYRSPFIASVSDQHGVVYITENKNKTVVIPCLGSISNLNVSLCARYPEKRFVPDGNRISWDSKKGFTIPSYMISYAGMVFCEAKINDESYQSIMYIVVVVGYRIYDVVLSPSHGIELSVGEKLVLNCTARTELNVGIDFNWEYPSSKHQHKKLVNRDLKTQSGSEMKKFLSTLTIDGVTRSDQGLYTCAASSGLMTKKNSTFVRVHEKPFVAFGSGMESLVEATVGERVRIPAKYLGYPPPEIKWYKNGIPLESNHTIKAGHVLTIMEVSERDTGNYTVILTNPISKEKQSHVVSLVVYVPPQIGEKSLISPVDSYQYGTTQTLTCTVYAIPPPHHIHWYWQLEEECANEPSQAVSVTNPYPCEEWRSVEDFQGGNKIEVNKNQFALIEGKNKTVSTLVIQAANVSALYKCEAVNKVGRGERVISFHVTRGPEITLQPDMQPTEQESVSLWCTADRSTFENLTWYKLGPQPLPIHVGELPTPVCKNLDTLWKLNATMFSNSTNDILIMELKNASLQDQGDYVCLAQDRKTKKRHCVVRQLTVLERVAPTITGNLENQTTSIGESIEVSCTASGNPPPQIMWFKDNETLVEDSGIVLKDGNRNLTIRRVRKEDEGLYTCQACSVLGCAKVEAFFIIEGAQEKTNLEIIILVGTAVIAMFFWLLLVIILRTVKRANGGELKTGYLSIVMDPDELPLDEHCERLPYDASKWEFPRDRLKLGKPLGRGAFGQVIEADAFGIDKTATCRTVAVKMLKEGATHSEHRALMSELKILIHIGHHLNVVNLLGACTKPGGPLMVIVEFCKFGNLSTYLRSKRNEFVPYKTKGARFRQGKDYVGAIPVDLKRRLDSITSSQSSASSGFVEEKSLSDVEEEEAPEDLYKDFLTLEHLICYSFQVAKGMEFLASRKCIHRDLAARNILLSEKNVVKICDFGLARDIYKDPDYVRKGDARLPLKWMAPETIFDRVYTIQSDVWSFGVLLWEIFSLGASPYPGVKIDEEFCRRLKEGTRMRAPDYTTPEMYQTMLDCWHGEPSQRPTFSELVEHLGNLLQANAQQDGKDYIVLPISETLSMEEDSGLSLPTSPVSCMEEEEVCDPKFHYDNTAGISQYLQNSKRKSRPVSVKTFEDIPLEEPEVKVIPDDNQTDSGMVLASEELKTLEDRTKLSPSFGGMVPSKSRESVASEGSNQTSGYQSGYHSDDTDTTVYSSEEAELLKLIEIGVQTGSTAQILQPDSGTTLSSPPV
# Protocol: (§2) Transfected cells were then seeded at 50,000 cells/well and incubated with 5 μg/mL of candidate antibody for one hour at 4° C. […] After washing, the cells were incubated with Cy5-conjugated rabbit anti-goat antibody plus 7AAD for 15 minutes at 4° C.
# human KDR [3] = biological target: T2, human KDR; test: cell-based or functional assay
# human KDR [4] = biological target: T2, human KDR; test: FACS competition on 293T/human KDR transfectants; antibody 5 ug/mL first, then competitor VEGF165 50 ng/mL; inhibition of VEGF binding
# Protocol: as §2
# cynomolgus KDR = biological target: T3, cynomolgus KDR (cynomolgus monkey, UniProt A0A2K5VE63 20-1356); test: FACS on Cyno KDR/293T transfectants, antibody 5 ug/mL
# T3 construct: whole, on cells; also called Cyno KDR
# T3 sequence (A0A2K5VE63 entry or part of it): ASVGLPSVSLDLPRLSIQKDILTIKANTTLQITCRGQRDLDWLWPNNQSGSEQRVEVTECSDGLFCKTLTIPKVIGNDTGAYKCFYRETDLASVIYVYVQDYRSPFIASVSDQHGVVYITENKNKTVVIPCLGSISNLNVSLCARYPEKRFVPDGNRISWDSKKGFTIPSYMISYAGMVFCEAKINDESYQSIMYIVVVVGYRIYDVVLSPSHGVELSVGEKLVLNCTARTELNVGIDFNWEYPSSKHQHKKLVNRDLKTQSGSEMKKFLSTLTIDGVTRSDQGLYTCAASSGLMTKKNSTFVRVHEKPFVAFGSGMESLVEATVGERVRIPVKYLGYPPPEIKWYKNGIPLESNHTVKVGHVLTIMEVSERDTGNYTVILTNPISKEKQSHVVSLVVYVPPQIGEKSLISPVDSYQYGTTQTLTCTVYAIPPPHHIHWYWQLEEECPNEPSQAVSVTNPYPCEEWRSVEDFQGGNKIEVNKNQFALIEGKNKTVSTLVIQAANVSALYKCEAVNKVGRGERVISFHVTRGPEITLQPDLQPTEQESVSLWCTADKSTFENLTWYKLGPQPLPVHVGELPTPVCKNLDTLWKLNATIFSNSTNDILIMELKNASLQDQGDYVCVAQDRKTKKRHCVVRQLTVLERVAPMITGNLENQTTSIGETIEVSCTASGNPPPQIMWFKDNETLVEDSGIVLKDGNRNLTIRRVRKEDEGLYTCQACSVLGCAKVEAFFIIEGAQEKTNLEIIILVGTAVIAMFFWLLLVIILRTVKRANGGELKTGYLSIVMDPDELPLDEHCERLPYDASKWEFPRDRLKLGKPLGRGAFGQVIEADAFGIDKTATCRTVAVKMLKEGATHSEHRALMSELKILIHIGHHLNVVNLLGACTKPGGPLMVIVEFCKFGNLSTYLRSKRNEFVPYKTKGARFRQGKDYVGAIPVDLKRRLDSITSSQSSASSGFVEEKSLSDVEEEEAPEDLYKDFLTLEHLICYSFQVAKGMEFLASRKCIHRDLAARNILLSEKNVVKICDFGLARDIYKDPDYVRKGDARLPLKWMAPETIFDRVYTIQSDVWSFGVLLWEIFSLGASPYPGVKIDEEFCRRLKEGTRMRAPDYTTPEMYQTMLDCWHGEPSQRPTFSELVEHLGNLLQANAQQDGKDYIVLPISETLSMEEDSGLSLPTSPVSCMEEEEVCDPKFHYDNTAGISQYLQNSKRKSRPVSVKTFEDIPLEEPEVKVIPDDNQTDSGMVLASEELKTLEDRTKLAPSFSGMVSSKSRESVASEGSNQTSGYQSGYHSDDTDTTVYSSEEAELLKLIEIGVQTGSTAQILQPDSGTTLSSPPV
# soluble KDR Ig4-7 domain [5] = biological target: T4, soluble KDR Ig4-7 domain (human, UniProt P35968 328-764); test: ELISA, KDR Ig4-7 coat (1:1 diln.), antibody 0.01 ug/mL
# T4 construct: domain: Ig4-7 domain; also called b-KDRIg4-7-myc-his; Ig4-7 domain of KDR; not shown: myc-his tag of the pSecTag construct
# T4 sequence (P35968 328-764): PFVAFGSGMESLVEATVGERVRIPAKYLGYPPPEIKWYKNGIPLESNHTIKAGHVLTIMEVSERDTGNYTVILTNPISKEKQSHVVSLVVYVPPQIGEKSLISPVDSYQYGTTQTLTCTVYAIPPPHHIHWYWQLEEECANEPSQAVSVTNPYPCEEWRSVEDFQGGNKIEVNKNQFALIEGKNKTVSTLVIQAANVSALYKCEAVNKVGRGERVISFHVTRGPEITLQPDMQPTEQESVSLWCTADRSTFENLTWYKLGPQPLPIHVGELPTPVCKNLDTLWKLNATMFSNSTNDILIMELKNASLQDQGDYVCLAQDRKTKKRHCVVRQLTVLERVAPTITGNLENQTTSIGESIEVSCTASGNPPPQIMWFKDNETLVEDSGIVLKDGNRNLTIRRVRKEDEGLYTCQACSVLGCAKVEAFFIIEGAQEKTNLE
# In short: as §1
# [6] = biological target: T1, mouse KDR (Flk-1)/Fc (Cat. #443-KD/CF, …); test: ELISA, Flk-1 coat 5 ug/mL, antibody 0.1 ug/mL
# In short: as §1
# human KDR [7] = biological target: T2, human KDR; test: cell-based or functional assay; remark: listed apart in the source
# [8] = biological target: T5, whole KDR-ECD (Cat. # 676490, Calbiochem) (human, UniProt P35968 20-764); test: ELISA, KDR-ECD coat 5 ug/mL, antibody 0.1 ug/mL
# T5 construct: extracellular domain; Bought soluble protein; also called soluble KDR; VEGF Receptor 2 D1-7
# T5 sequence (P35968 20-764): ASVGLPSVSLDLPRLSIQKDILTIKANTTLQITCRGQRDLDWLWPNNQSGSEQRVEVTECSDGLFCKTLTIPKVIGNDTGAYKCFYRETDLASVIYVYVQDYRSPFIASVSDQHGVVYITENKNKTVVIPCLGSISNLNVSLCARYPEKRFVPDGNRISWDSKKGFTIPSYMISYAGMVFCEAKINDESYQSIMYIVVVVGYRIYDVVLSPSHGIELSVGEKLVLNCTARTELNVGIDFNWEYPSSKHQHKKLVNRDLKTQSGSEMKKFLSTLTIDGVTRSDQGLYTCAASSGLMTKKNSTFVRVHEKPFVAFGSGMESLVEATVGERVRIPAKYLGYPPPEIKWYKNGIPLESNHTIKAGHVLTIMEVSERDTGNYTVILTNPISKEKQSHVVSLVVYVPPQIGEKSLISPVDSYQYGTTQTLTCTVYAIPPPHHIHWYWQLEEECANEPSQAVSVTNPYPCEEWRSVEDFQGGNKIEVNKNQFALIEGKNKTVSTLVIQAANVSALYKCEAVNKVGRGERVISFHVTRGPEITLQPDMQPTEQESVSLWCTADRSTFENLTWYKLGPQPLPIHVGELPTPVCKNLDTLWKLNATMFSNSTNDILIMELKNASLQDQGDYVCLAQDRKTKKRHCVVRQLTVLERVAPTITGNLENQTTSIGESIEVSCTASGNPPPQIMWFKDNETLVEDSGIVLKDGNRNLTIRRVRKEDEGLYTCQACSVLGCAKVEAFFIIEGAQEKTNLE
# In short: as §1
# [9] = biological target: T5, whole KDR-ECD (Cat. # 676490, …); test: ELISA, KDR-ECD coat 5 ug/mL, antibody 1 ug/mL
# In short: as §1
# human KDR [10] = biological target: T2, human KDR; test: cell-based or functional assay; remark: listed apart in the source
# human KDR [11] = biological target: T2, human KDR; test: FACS titration of purified antibody on HUVEC cells (FACS Kd)
# Protocol: The binding affinities of the purified antibodies for endogenously-expressed KDR in HUVEC cells was measured. HUVEC cells were seeded at 150,000 cells/well and incubated with titrations of purified antibody for 4 hours at 4° C. The cells were then washed and incubated with goat anti-human IgG-Fc-Cy5+5 μg/mL 7-Amino-Actinomycin (7AAD) for 30 minutes at 4° C. Bound KDR was detected using FACS analysis.
# soluble KDR Ig4-7 domain [12] = biological target: T4, soluble KDR Ig4-7 domain; test: ELISA, KDR Ig4-7 coat (1:1 diln.), antibody 1 ug/mL
# In short: as §1
# [13] = biological target: T1, mouse KDR (Flk-1)/Fc (Cat. #443-KD/CF, …); test: ELISA, Flk-1 coat 5 ug/mL, antibody 0.01 ug/mL
# In short: as §1
# [14] = biological target: T5, whole KDR-ECD (Cat. # 676490, …); test: ELISA, KDR-ECD coat 5 ug/mL, antibody 0.01 ug/mL
# In short: as §1
# soluble KDR Ig4-7 domain [15] = biological target: T4, soluble KDR Ig4-7 domain; test: ELISA, KDR Ig4-7 coat (1:1 diln.), antibody 0.1 ug/mL
# In short: as §1
# T1 sequence (P35918 20-762 limits assumed): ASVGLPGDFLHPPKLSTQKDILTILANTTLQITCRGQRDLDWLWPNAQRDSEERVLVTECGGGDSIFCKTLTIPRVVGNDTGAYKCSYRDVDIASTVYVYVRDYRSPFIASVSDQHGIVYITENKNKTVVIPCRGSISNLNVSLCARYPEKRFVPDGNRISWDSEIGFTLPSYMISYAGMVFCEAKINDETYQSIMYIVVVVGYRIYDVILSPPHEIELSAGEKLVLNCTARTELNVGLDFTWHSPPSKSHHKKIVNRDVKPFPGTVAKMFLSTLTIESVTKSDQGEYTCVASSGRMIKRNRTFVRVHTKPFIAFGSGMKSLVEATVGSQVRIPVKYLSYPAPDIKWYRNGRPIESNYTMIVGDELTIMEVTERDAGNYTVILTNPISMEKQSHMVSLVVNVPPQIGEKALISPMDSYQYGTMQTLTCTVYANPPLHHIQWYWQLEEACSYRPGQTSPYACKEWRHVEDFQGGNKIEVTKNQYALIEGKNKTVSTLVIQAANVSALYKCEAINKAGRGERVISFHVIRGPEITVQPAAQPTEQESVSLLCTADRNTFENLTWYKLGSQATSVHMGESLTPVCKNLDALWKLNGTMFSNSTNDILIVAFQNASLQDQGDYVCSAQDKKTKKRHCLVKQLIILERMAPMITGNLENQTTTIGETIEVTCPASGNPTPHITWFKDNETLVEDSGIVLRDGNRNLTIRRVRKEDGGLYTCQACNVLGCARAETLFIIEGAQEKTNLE
Binder,ELISA reading [1],FACS Geometric Mean Fluorescence (bound VEGF165) (human KDR [2]),"HUVEC survival, Maximum Inhibition at 50 nM (% Inhibition), Average (human KDR [3])","HUVEC survival, Maximum Inhibition at 50 nM (% Inhibition), N = 1 (human KDR [3])","HUVEC survival, Maximum Inhibition at 50 nM (% Inhibition), N = 2 (human KDR [3])",% Inhibition (human KDR [4]),FACS Geometric Mean Fluorescence (cynomolgus KDR),ELISA reading (soluble KDR Ig4-7 domain [5]),ELISA reading [6],"KDR tyrosine phosphorylation in HUVEC, EC50 (nM), Average (human KDR [7])","KDR tyrosine phosphorylation in HUVEC, EC50 (nM), N = 1 (human KDR [7])","KDR tyrosine phosphorylation in HUVEC, EC50 (nM), N = 2 (human KDR [7])","KDR tyrosine phosphorylation in HUVEC, Maximum Inhibition at 100 nM (% Inhibition), Average (human KDR [7])","KDR tyrosine phosphorylation in HUVEC, Maximum Inhibition at 100 nM (% Inhibition), N = 1 (human KDR [7])","KDR tyrosine phosphorylation in HUVEC, Maximum Inhibition at 100 nM (% Inhibition), N = 2 (human KDR [7])",ELISA reading [8],ELISA reading [9],"6-keto Prostaglandin F1α release, EC50 (nM), Average (human KDR [10])","6-keto Prostaglandin F1α release, EC50 (nM), N = 1 (human KDR [10])","6-keto Prostaglandin F1α release, EC50 (nM), N = 2 (human KDR [10])",other results
"24B3 (antibody, V domains shown, Fully human monoclonal antibody from a XenoMouse hybridoma (IgG2 or IgG4 strain), purified) VH: EVQLVESGGGLVKPGGSLRLSCAASGFTFSTYSMNWVRQAPGKGLEWVSFISGRSSYIYYADSVKGRFTISRDNAKNSLYLQMNSLRAEDTAVYYCSKDDWFEELWGQGTLVTVSS VL: DIQMTQSPSSLSASVGDRVTITCRASQGIRSDLGWYQQKPGKAPKRLIYATSSLQSGVPSRFSGSGSGTEFTLTISSLQPEDFATYYCLQHNRYPWTFGQGTKVEIK",3.39,97,90%,97%,82%,27%,68.4,1.45,2.75,2.2 nM,2.1 nM,2.3 nM,81%,78%,84%,0.304,3.02,12.1 nM,8.1 nM,16.2 nM,"6-keto Prostaglandin F1α release, Maximum Inhibition (% Inhibition), Average (human KDR [10]): 54%; 6-keto Prostaglandin F1α release, Maximum Inhibition (% Inhibition), N = 1 (200 nM) (human KDR [10]): 37%; 6-keto Prostaglandin F1α release, Maximum Inhibition (% Inhibition), N = 2 (333 nM) (human KDR [10]): 72%; Kd (human KDR [11]): 0.8 nM; ELISA reading (soluble KDR Ig4-7 domain [12]): 3.47; ELISA reading [13]: 1.58; ELISA reading [14]: 0.09; ELISA reading (soluble KDR Ig4-7 domain [15]): 2.8"
"31E11 (antibody, V domains shown, Fully human monoclonal antibody from a XenoMouse hybridoma (IgG2 or IgG4 strain), purified) VH: QVQLVESGGGLVKPGGSLRLSCAASGFTFSDYYMSWIRQAPGKGLEWVSYISISGSTIYYADSVKGRFTISRDNAKNSLYLQMNSLRAEDTAVYYCARDDFWSGYYFNWFDPWGQGTLVTVSS VL: DIQMTQSPSSLSASVGDRVTITCRANQTISTFLNWYQQNPGKAPKLLIYAASSLQSGVPSRFSGSGSGTDFTLTISSLQPEDFATYYCQQTYIIPLTFGGGTKVEIK",3.1,138,101%,101%,101%,-8%,99.5,0.072,2.37,1.9 nM,2 nM,1.9 nM,85%,84%,86%,0.161,1.96,6.2 nM,6.1 nM,6.4 nM,"6-keto Prostaglandin F1α release, Maximum Inhibition (% Inhibition), Average (human KDR [10]): 98%; 6-keto Prostaglandin F1α release, Maximum Inhibition (% Inhibition), N = 1 (200 nM) (human KDR [10]): 88%; 6-keto Prostaglandin F1α release, Maximum Inhibition (% Inhibition), N = 2 (333 nM) (human KDR [10]): 108%; Kd (human KDR [11]): 11.3 nM; ELISA reading (soluble KDR Ig4-7 domain [12]): 0.107; ELISA reading [13]: 0.826; ELISA reading [14]: 0.08; ELISA reading (soluble KDR Ig4-7 domain [15]): 0.073"
"33E1 (antibody, V domains shown, Fully human monoclonal antibody from a XenoMouse hybridoma (IgG2 or IgG4 strain), purified) VH: QVQLQESGPGLVKPSQTLSLTCTVSGGSISSGDHYWSWIRQHPGKGLEWIGHIYYSGSTDYNPSLKSRVTISVDTSKNHFSLKLNSVTAADTAVYYCARTNSSSWSDWYFDLWGRGTLVTVSS VL: DIVMTQSPDSLAVSLGERATINCKSSQSILYSSNNKNYLAWYQRKPGQPPILLIHWASTRESGVPDRFSGSGSRTDFTLTISSLQAEDVAVYYCQQYFITPWTFGQGTKVEIK",2.17,147,103%,107%,99%,-15%,88.5,0.067,1.47,5.5 nM,5.8 nM,5.1 nM,74%,73%,75%,0.205,1.38,5.1 nM,4.8 nM,5.4 nM,"6-keto Prostaglandin F1α release, Maximum Inhibition (% Inhibition), Average (human KDR [10]): 90%; 6-keto Prostaglandin F1α release, Maximum Inhibition (% Inhibition), N = 1 (200 nM) (human KDR [10]): 77%; 6-keto Prostaglandin F1α release, Maximum Inhibition (% Inhibition), N = 2 (333 nM) (human KDR [10]): 103%; Kd (human KDR [11]): 3.8 nM; ELISA reading (soluble KDR Ig4-7 domain [12]): 0.107; ELISA reading [13]: 0.846; ELISA reading [14]: 0.081; ELISA reading (soluble KDR Ig4-7 domain [15]): 0.074"
